Experimental data as given in article doi:10.1101/2023.03.17.532973 (bioRxiv, 2023).

T1: SHMT1 (cytosolic serine hydroxymethyltransferase) WT (Homo sapiens, UniProt P34896 1-483)
T1 sequence: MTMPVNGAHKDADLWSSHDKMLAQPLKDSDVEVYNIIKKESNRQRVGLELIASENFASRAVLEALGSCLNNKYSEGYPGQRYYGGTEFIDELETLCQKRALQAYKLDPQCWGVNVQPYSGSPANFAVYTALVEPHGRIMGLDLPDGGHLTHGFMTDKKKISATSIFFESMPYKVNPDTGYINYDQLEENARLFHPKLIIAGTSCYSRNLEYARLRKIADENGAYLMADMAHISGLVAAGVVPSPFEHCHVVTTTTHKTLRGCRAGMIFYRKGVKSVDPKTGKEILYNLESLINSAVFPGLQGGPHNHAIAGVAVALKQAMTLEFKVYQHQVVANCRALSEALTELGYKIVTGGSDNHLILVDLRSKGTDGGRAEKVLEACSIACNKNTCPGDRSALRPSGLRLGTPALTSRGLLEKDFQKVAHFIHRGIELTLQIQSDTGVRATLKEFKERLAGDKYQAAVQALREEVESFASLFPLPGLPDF

B1: human cytosolic serine hydroxymethyltransferase (SHMT1), wild type (enzyme)
chain: DADLWSSHDKMLAQPLKDSDVEVYNIIKKESNRQRVGLELIASENFASRAVLEALGSCLNNKYSEGYPGQRYYGGTEFIDELETLCQKRALQAYKLDPQCWGVNVQPYSGSPANFAVYTALVEPHGRIMGLDLPDGGHLTHGFMTDKKKISATSIFFESMPYKVNPDTGYINYDQLEENARLFHPKLIIAGTSCYSRNLEYARLRKIADENGAYLMADMAHISGLVAAGVVPSPFEHCHVVTTTTHKTLRGCRAGMIFYRKGVKSVDPKTGKEILYNLESLINSAVFPGLQGGPHNHAIAGVAVALKQAMTLEFKVYQHQVVANCRALSEALTELGYKIVTGGSDNHLILVDLRSKGTDGGRAEKVLEACSIACNKNTCPGDRSALRPSGLRLGTPALTSRGLLEKDFQKVAHFIHRGIELTLQIQSDTGVRATLKEFKERLAGDKYQAAVQALREEVESFASLFPLPGL

What was measured:
cryo-EM structure = molecular target: the molecule itself; assay: cryo-EM structure
[1] = molecular target: T1, SHMT1 (cytosolic serine …); assay: EMSA

Binder	stoichiometry N (cryo-EM structure)	binding result [1]
B1	4	–
UGUGGCCUUUUGGGAAUUGUAGUUCGCCCACUCACCGCUUUUUUCUUUAU (structured_RNA) [UTR2 1-50 Rv (reverse complement)]	–	binds
